The values below come from PMC6222199, “Regulatory Targets of the Response Regulator RR_1586 from Clostridioides difficile Identified Using a Bacterial One-Hybrid Screen”.

In the data set the target is RR_1586 D50G (Clostridioides difficile R20291, UniProt A0A9R0BKD1 1-223, D50G). The data set can be described thus: EMSA; 10 mM Mg2+; phosphoramidate; EMSA: 5 pmol DNA in 10 ul (500 nM), 10 mM Tris pH 8, 50 mM NaCl, 10 mM MgCl2, room temperature 10 min; 10% PAGE 0.5x TBE on ice, ethidium bromide. The conditions noted are these: protein: recombinant; tags: His6; chain copies: 2; blunt. In general terms: In EMSA bound probe runs differently from free probe, usually more slowly.

B1: CDR20291_1583 site (dsDNA)
DNA 1: AGGAATTAAGGAGCAATTAAATGATG
DNA 2: CATCATTTAATTGCTCCTTAATTCCT
Turning to B1, the binding result is “binds”.
